Tests used:
C1q = biological target: T1, C1q (UniProt P02745 23-245; P02746 28-253; P02747 29-245); experiment: ELISA; solid phase binding assay: microtiter plates coated with 5 µg/ml serglycin (as GAG content), blocked with 1% BSA; C1q or MBL added at increasing concentrations in 50 mM Hepes pH 7.4, 150 mM NaCl, 2 mM CaCl2, 1 h at RT; bound protein detected with antibodies; KD from the slope of a Scatchard-type plot; settings: both partners purified
T1 construct: complement C1q subcomponent subunit A; complement C1q subcomponent subunit B; complement C1q subcomponent subunit C; also called complement component C1q; purified C1q; source: bought: Sigma-Aldrich; copies: + +

mannose-binding lectin = biological target: T2, mannose-binding lectin (UniProt P11226 21-248); experiment: as above; settings: both partners purified
T2 construct: Neither the species nor the oligomeric state is stated; Human MBL is surmised; also called MBL; source: bought: Statens Serum Institute (Denmark)
T2 sequence (P11226 21-248): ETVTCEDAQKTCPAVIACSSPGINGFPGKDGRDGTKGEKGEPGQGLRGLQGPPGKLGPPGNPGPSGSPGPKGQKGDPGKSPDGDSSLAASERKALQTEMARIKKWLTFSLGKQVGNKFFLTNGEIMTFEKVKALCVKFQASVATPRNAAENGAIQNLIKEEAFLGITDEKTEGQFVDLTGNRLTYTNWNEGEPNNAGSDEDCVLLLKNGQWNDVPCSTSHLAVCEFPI

T1 sequence (P02745 23-245, chain 1 of 3): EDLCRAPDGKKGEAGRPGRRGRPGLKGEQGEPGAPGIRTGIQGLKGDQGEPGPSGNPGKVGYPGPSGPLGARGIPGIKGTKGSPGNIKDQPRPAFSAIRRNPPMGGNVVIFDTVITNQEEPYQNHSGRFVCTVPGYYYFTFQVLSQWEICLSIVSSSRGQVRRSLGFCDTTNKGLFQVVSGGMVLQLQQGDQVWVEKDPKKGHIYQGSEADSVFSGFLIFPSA
T1 sequence (P02746 28-253, chain 2 of 3): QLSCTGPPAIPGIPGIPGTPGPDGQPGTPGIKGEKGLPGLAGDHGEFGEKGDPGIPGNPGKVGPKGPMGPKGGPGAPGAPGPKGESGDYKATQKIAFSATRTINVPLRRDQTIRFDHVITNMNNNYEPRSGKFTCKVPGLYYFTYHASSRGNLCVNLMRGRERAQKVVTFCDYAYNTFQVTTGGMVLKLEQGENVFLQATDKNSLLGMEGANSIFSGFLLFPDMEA
T1 sequence (P02747 29-245, chain 3 of 3): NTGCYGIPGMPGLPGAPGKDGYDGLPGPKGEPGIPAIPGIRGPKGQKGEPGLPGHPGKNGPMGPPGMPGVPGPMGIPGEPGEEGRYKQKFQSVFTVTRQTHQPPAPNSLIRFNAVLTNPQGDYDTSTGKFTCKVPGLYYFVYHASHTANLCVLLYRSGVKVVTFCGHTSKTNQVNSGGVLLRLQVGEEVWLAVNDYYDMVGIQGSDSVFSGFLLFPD

Kd (C1q): 20 nM
Kd (mannose-binding lectin): 48 nM
B1: Serglycin isolated from conditioned medium of MDA-MB-231 breast cancer cells (total glycanated serglycin) (natural protein, human (endogenous in MDA-MB-231), UniProt P10124 28-158, looked up)
chain: YPTRRARYQWVRCNPDSNSANCLEEKGPMFELLPGESNKIPRLRTDLFPKTRIQDLNRIFPLSEDYSGSGFGSGSGSGSGSGSGFLTEMEQDYQLVDESDAFHDNLRSLDRNLPSDSQDLGQHGLEEDFML
modifications: chondroitin sulfate side chains (4-sulfated 87%, 6-sulfated 10%, non-sulfated 3% disaccharides)
notes: serglycin core protein, secreted proteoglycan of ~250-300 kDa, core protein seen at ~28 kDa after chondroitinase ABC; Proteoglycan: GAG content about 94.5% and core protein about 5.5% of the total mass; also called SG; breast cancer-derived serglycin; source: endogenous, secreted by MDA-MB-231 cells; purified from culture medium (DEAE-Sephacel, Sepharose CL-4B)

— article PMC3815026, “Serglycin Is Implicated in the Promotion of Aggressive Phenotype of Breast Cancer Cells” (PLoS ONE, 2013)
